Source: article PMC8403083

Key:
enzyme kinetics [1] = substrate: Nc1ccn([C@@H]2O[C@H](COP(=O)(O)O)[C@@H](O)[C@H]2O)c(=O)n1; assay: enzyme kinetics; type: biochemical, Homo sapiens
enzyme kinetics [2] = substrate: Nc1ncnc2c1ncn2[C@@H]1O[C@H](COP(=O)(O)O)[C@@H](O)[C@H]1O; assay: enzyme kinetics; type: biochemical, Homo sapiens

B1: CD73 (5ʹ-Nucleotidase) (Homo sapiens) (protein)
chain: WELTILHTNDVHSRLEQTSEDSSKCVNASRCMGGVARLFTKVQQIRRAEPNVLLLDAGDQYQGTIWFTVYKGAEVAHFMNALRYDAMALGNHEFDNGVEGLIEPLLKEAKFPILSANIKAKGPLASQISGLYLPYKVLPVGDEVVGIVGYTSKETPFLSNPGTNLVFEDEITALQPEVDKLKTLNVNKIIALGHSGFEMDKLIAQKVRGVDVVVGGHSNTFLYTGNPPSKEVPAGKYPFIVTSDDGRKVPVVQAYAFGKYLGYLKIEFDERGNVISSHGNPILLNSSIPEDPSIKADINKWRIKLDNYSTQELGKTIVYLDGSSQSCRFRECNMGNLICDAMINNNLRHTDEMFWNHVSMCILNGGGIRSPIDERNNGTITWENLAAVLPFGGTFDLVQLKGSTLKKAFEHSVHRYGQSTGEFLQVGGIHVVYDLSRKPGDRVVKLDVLCTKCRVPSYDPLKMDEVYKVILPNFLANGGDGFQMIKDELLRHDSGDQDINVVSTYISKMKVIYPAVEGRIK
Km (enzyme kinetics [1]): 45 µM
Km (enzyme kinetics [2]): 2.7 µM
